Changes are numbered by the printed parent chain. Numbers in names are those of the source.

The source of these data is patent US20250206818A1 (AGENUS, published 2025).

Sequences and labels used below:
T1: human LAG-3 expressed on cells (human, UniProt P18627 23-525)
T1 construct: whole, on cells; also called CD223
T1 sequence (looked up): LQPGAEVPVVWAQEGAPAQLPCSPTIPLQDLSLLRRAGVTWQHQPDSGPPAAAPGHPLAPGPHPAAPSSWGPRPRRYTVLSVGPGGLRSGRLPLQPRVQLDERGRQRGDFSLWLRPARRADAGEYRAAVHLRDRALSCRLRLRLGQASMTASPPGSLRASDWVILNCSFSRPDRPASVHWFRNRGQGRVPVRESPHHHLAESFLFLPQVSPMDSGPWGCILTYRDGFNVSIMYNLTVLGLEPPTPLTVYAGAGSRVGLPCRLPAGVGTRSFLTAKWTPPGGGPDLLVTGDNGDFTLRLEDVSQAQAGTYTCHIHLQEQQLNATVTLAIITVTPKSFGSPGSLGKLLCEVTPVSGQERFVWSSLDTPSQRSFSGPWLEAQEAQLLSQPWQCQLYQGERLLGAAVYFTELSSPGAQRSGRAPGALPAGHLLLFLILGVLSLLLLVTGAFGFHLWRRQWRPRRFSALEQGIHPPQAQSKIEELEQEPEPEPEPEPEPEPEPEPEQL

T2: human LAG-3 (human, UniProt P18627 23-450, limits assumed)
T2 construct: Selections used human LAG-3-Fc, human LAG-3-6His, a 30 aa LAG-3 peptide and/or cells with cynomolgus LAG-3; also called CD223
T2 sequence (looked up): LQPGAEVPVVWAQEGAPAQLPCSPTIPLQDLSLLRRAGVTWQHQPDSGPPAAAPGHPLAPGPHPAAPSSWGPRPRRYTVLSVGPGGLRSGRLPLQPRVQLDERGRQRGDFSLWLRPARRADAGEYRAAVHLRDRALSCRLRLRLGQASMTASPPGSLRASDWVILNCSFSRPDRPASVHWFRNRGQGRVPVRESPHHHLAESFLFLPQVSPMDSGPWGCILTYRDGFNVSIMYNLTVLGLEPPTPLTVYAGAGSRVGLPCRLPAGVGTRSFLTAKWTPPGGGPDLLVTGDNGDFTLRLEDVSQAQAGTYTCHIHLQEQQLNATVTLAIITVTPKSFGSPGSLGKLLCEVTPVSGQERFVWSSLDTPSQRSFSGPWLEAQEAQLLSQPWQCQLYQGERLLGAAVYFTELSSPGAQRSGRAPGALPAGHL

B1: P16D04 Fab (Fab, V domains shown)
VH: QVQLQQSGAELVKPGASVELSCTASGFNIRDTYMYWVKQRPEQGLEWIGRIDPANGNTKFDPKFQDRATMTADTSSNTAYLQLSSLTSEDTAVYYCTTYFYRYDVGGFDYWGQGTTLTVS
VL: ENVLTQSPALMAASPGEKVTITCSVSSSISSSNLHWYQQKSGTSPKLWIYGTSNLASGVPVRFSGSGSGTSYSLTISSMEAEDAATYYCQQWSSYPLTFGAGTKLELK
notes: Murine Fab, periplasmic extract
B2: P16H05 Fab (Fab, V domains shown)
VH: QVQLQQPGAELVKPGASVKLSCTASGFNIKDNYIHWVKQRPEQGLEWIGSIDPANGNTKYDPKFQGKASITADTSSNTAYLQLSSLTSEDTAVYYCASYFYRYDVGGFDYWGQGTTLTVS
VL: B1 VL with N2I, L97H, A101G, L107I
notes: as for B1
B3: P13H05 Fab (Fab, V domains shown)
VH: B2 VH with N32T, S50E, G56D, S69T, S98T, F100Y
VL: B1 VL with Y37F, L97F, A101S, L107I
notes: as for B1
B4: P13B11 Fab (Fab, V domains shown)
VH: B2 VH with I34M, H35D, S50K, S69T, S98T, F100Y
VL: B1 VL with E1Q, N2I, Y37F, L97F, A101S, L107I
notes: as for B1
B5: P13E02 Fab (Fab, V domains shown)
VH: B2 VH with A24V, N32T, S50E, T58S, D61A, K63R, S69T, S98T, F100Y
VL: B1 VL with Y37F, L97F, A101S, L107I
notes: as for B1
B6: P14F06 Fab (Fab, V domains shown)
VH: B2 VH with L4M, Q5K, P7S
VL: B1 VL with N2I, Y37F, L97F, A101S, L107I
notes: as for B1
B7: P13B02 Fab (Fab, V domains shown)
VH: B2 VH with L4M, Q5K, P7S, N32T, S50E, G56D, S69T, S98T, F100Y
VL: B1 VL with N2I, V3L, Y37F, L97F, A101S, L107I
notes: as for B1
B8: P13C08 Fab (Fab, V domains shown)
VH: B2 VH with Q5K, P7S
VL: B1 VL with E1D, N2V, L4M, S7T, Y37F, L97F, A101S, L107I
notes: as for B1
B9: P15B06 Fab (Fab, V domains shown)
VH: B1 VH with Q1E, E19K, R30K, E46D, K59H, D66G, R67K, M70I, T97S
VL: B1 VL with E1Q, N2I, V3L
notes: as for B1
B10: P13F02 Fab (Fab, V domains shown)
VH: B2 VH with N32T, E46D, I48V, S50E, N57H, S69T, S98T, F100Y
VL: B1 VL with Y37F, L97F, A101S, L107I
notes: as for B1
B11: P14G03 Fab (Fab, V domains shown)
VH: B2 VH with L4M, Q5K, P7S, N32T, E42G, S50E, S69T, S98T, F100Y
VL: B1 VL with E1D, N2I, H35Y, Y37F, L97F, A101S, L107I
notes: as for B1
B12: P13A06 Fab (Fab, V domains shown)
VH: QVQLKQSGAELVKPGASVKLSCTASGFNIKDTYMYWVKQRPEQGLEWIGRIDPANGNTKYDPKFQGKATITADTSSNTVYLQLSSLTSEDTAVFYCVIYSYRYDVGGFDYWGQGTTLTVS
VL: B1 VL with L97H, A101G, L107I
notes: as for B1
B13: P01C09 Fab (Fab, V domains shown)
VH: B12 VH with F64L
VL: B1 VL with N2I, L97F, A101S, L107I
notes: as for B1
B14: P13B03 Fab (Fab, V domains shown)
VH: B2 VH with Q1E, P7S, N32T, S50E, S69T, S98T, F100Y
VL: B1 VL with Y37F, L97F, A101S, L107I
notes: as for B1
B15: P13D04 Fab (Fab, V domains shown)
VH: B2 VH with P7S, I34M, H35D, S50K, S69T, S98T, F100Y
VL: B1 VL with E1D, N2I, Y37F, S44P, L97F, A101S, L107I
notes: as for B1
B16: P14B07 Fab (Fab, V domains shown)
VH: B2 VH with A92T
VL: B1 VL with L97F, A101S, L107I
notes: as for B1
B17: P13F09 Fab (Fab, V domains shown)
VH: B2 VH with P7S, D90G
VL: B1 VL with N2I, Y37F, L97F, A101S, L107I
notes: as for B1
B18: full length chimeric anti-LAG-3 antibody P13B02 (antibody, V domains shown)
VH: B2 VH with L4M, Q5K, P7S, N32T, S50E, G56D, S69T, S98T, F100Y
VL: B1 VL with N2I, V3L, Y37F, L97F, A101S, L107I
notes: Murine variable regions on human heavy (Ch1, Ch2, Ch3) and light (CL) constant regions; full-length IgG1 chimeric antibody; also called chimeric antibody P13B02 (IgG1)
B19: P13B02-30 (IgG1 G1m17 N297A) (antibody, V domains shown)
VH: QVQMVQSGAEVKKPGASVKVSCKASGFNIKDTYIHWVRQAPGQGLEWMGEIDPANDNTKYDPKFQGRVTITADTSTSTVYMELSSLRSEDTAVYYCATYYYKYDVGGFDYWGQGTLVTVSS
VL: EIVLTQSPGTLSLSPGERATLSCSVSSSISSSNLHWYQQKPGQAPRLLIYGTSNLASGIPDRFSGSGSGTDFTLTISRLEPEDFAVYYCQQWSSYPFTFGQGTKVEIK
notes: Full length antibody containing IgG1 G1m17 allotype with a N297A mutation (EU)
B20: P13B02-30 (IgG4) (antibody, V domains shown)
VH: B19 VH
VL: B19 VL

For one experiment, the target named is T1, human LAG-3 expressed on cells. Put plainly: flow cytometry, Fab periplasmic extract on Jurkat cells expressing human LAG-3 (FIGS. 1A-1C). As to the method:
The anti-LAG-3 Fabs from periplasmic extracts were tested for binding to LAG-3-expressing cells using flow cytometry. Briefly, wild type and human LAG-3-expressing Jurkat cells were plated at 2×10⁵ cells/well in sample buffer (PBS (Gibco, Cat #10010-015)+0.5% FBS (Gibco, Cat #10270-106)) in 96-well U-bottom plates (Sarstedt). 22 μl of anti-LAG-3 Fab periplasmic extract and 83 μl of diluted anti-c-myc antibody (Gentaur, Clone #9E10, Cat #04-cmyc-9E10) were incubated for 30 minutes at room temperature. 100 μl of the periplasmic extract/anti-c-myc mixture was added to cells and then incubated for one hour on ice. Cells were washed three times and then incubated with a goat anti-mouse APC (BD Biosciences, Cat #550826) for 30 minutes on ice. Cells were washed three times and then analyzed with a FACS machine (BD Accuri6).
Background: Flow cytometry measures light scatter and fluorescence of single cells or particles in a stream.
On to B1, for which the binding result is “binds”. Same read-out and setting: with B2 the entry was “binds”; with B3, “binds”; with B4, “binds”. On to B5, for which the binding result is “binds”. With B6, the binding result was “binds”. B7: the binding result is “binds”.

In the case of B8, the binding result is “binds”. As for B9, the binding result was “binds”. The same measure, in the same setting: with B10 the entry was “binds”; with B11, “binds”; with B12, “binds”. Turning to B13, the binding result was “binds”. The same measure, in the same setting: as for B14, the entry is “binds”; as for B15, “binds”; as for B16, “binds”. On the same count and under the same terms, as for B17, the entry is “binds”.

A further experiment shares this target. Put plainly: flow cytometry, 10 ug/ml antibody on SEA-activated primary human CD4+ T cells (FIG. 6A).
Consider B18, for which the binding result is reported as “binds”. For the molecule B19, the binding result is reported as “binds”. As to B20, the binding result is recorded as “binds”.

A further experiment has as its target T2, human LAG-3. The experiment can be described thus: Fab phage display selection; periplasmic extracts screened by ELISA or flow cytometry. The text has this:
Anti-LAG-3 antibodies were identified by generation and selection of an immunized Fab phage display library. […] Per mouse, a Fab library was then generated by random-primed cDNA using total RNA as a template to amplify variable regions from mouse antibody genes. Heavy and kappa chain amplicons were combined and cloned into phagemid vectors. […] The 30 amino acid human LAG-3 peptide is a biotinylated peptide comprising the amino acid sequence of […] (SEQ ID NO: 199). Periplasmic extracts of selected Fab clones were then screened by ELISA or flow cytometry. Antibody sequencing and off-rate analysis were then performed on anti-LAG-3 Fabs.
(In general: An ELISA detects its analyte on a solid surface through an enzyme-linked reagent.)
Regarding B1, the binding result is listed as “binds”. Same read-out and setting: with B2 the entry was “binds”; with B3, “binds”; with B4, “binds”. Take B5: the binding result is listed as “binds”. On to B6, for which the binding result is “binds”. Same read-out and setting: as for B7, the entry is “binds”; as for B8, “binds”; as for B9, “binds”. The same measure, in the same setting: as for B10, the entry is “binds”. Same read-out and setting: with B11 the entry was “binds”. With B12, the binding result was “binds”. On to B13, for which the binding result is “binds”.

As for B14, the binding result was “binds”. Still for that read-out and setting: with B15 the entry was “binds”. The same measure, in the same setting: with B16 the entry was “binds”. B17: the binding result is recorded as “binds”.
